For experiment [1], the target named is T1, activated EGFR kinase (Homo sapiens, UniProt P00533).
T1 construct: DNA encoding residues 672-998 of human EGFR was cloned into pFAST BAC HT; made in house; host or cells: Sf9 insect cells (baculovirus, pFAST BAC HT; b247 prints 'SD cells')
Kind of experiment: Inhibition of activated EGFR kinase (kinase assay with kinase domain attached to vesicles). To be noted: read-out: IC50 inhibiting activated EGFR kinase. The experiment is classed as biochemical. Here is the method:
(§1) A continuous enzyme-coupled kinase assay was performed to measure the kinase activity of the proteins as described in Barker et al., ((1995) Biochemistry, Vol. 34(54): 14843-51), with modifications, as described herein. The ATP concentration was kept to 0.5 mM.
(§2) The buffer used contained 10 mM MgCl2, 20 mM Tris, and pH 7.5. […] The substrate peptide was derived from the region spanning Y1173 in EGFR ([…]) (SEQ ID NO: 7). All proteins used in this assay contained the N-terminal (His)6 tag unless otherwise noted.
The protein concentrations of the EGFR kinase domain used in the assay ranged from 3.5 to 14 μM. The total concentration of the DOGS-NTA-Ni in the bulk solution was kept to 12.5 μM in all assays with DOG-NTA-Ni-containing vesicles. For assays of the kinase domain attached to vesicles, the protein and vesicles were preincubated at 4° C. for ˜5 min.
The wildtype EGFR kinase domain was mixed with vesicles containing 0, 0.5, 1, 2 and 5 mole percent of DOGS-NTA-Ni prior to the start of the assay. The final concentration of the protein in the assay was 3.5 μM. […]
For comparing the specific activity of the wildtype and various mutant forms of the EGFR kinase domain in the presence and absence of lipid vesicles, the density of DOGS-NTA-Ni on lipid vesicles was kept at 5 mole percent. […] Due to this high value of KM, the values of KM and kcat were not measured directly. […]

The target of experiment [2] is T2, wildtype EGFR kinase domain (Homo sapiens, UniProt P00533).
T2 construct: DNA encoding residues 672-998 of human EGFR was cloned into pFAST BAC HT; made in house; host or cells: Sf9 insect cells (baculovirus, pFAST BAC HT; b247 prints 'SD cells')
Kind of experiment: Continuous enzyme-coupled kinase assay, substrate peptide KM. To be noted: preliminary experiments, substrate peptide at various concentrations; ATP 0.5 mM. The experiment is classed as biochemical. The protocol:
as §1, §2
For comparing the specific activity of the wildtype and various mutant forms of the EGFR kinase domain in the presence and absence of lipid vesicles, the density of DOGS-NTA-Ni on lipid vesicles was kept at 5 mole percent. […] Due to this high value of KM, the values of KM and kcat were not measured directly. Instead, the value of kcat/KM was derived from a linear fit to the data obtained, using concentrations of the peptide that are much lower than the estimated value of KM (V=[S]Vmax/(KM+[S]), V˜(Vmax/KM)[S] when [S]<<KM, kcat=Vmax/amount of the enzyme, where V and Vmax are the initial velocity and maximum initial velocity, respectively. (FIG. 6A).

Two compounds from US8242080B2, “Inhibitors of the EGFR kinase targeting the asymmetric activating dimer interface” (The Regents of the University of California, priority 2006, dated 2012) can be followed below.

Where a SMILES comes first, the peptide text is derived from it. Bounds are passed on as bounds.

Turning to “KSLPSYLNGVMPPTQSFAPDPKYVSS [40-mer peptide]”, the IC50 in experiment [1] is around 10 µM.

On to `CC(C)C[C@H](NC(=O)[C@H](Cc1ccc(O)cc1)NC(=O)[C@H](CCC(=O)O)NC(=O)[C@H](C)NC(=O)[C@H](CC(N)=O)NC(=O)[C@H](CCC(=O)O)NC(=O)[C@H](C)NC(=O)[C@@H](N)[C@@H](C)O)C(=O)N[C@@H](CCCNC(=N)N)C(=O)N[C@H](C(=O)N[C@@H](C)C(=O)N1CCC[C@H]1C(=O)N[C@@H](CCC(N)=O)C(=O)O)C(C)C` [substrate peptide] (H-TAENAEYLRVAPQ-OH), for which the Km in experiment [2] is above 4 mM.
